Reference: patent US8748480B2, “Methods for treating opioid tolerance” (priority 2005, dated 2014)

What was measured:
Assay type in all cases: binding
Gβ1γ2 Tyr145Ala = biological target: T1, Gβ1γ2 Tyr145Ala (Rattus norvegicus, UniProt P54311, Y145A); assay: Phage ELISA, b-βγ mutant Tyr145Ala; conditions: alanine-substituted Tyr145, N-Terminal Interface; mean ± SD
T1 construct: made in house; host or cells: Sf9 insect cells (baculovirus)
Text: (§1) Wild-type Gβ1 and Gβ1 mutants were made in the baculovirus vector PDW464 which encodes a biotinylation site at a lysine upstream of the amino terminus of Gβ1 (Goubaeva, et al. (2003) supra). Mutants were generated by overlap extension PCR using standard protocols. The wild-type and mutant Gβ1 constructs consisted of a 20 amino acid biotin acceptor peptide (BAP) sequence fused in-frame with the amino-terminus of rat Gβ1 subunit. When coexpressed with biotin holoenzyme synthetase (BirA) in Sf9 cells, the Gβ1 subunit becomes covalently biotinylated in vivo at the Specific lysine acceptor residue in the BAP. Using this approach, 1-2 mg protein of purified protein can be obtained per liter of Sf9 insect cells. As 45 ng of protein is used in the phage ELISA assay, a single purification is sufficient for 10,000 to 30,000 binding assays.
(§2) Phage ELISA assays used to assess peptide binding to wild-type and mutant b-βγ were performed according to standard methods (Smrcka and Scott (2002) Methods Enzymol. 344:557-76). Briefly, 1 μg streptavidin was immobilized in the well of a […] overnight at 4° C. The wells were blocked with 100 μL of 2% bovine serum albumin (BSA) in Tris-buffered saline (TBS) for 1 hour at 4° C. followed by three washes of 1×TBS/0.5% TWEEN®. Forty μL of 25 nM bGβ1γ2 in TBS/0.5% TWEEN® was added to each well and incubated at 4° C. for 1.5 hour. The wells were washed, followed by the addition of 1×10^6 to 1×10^10 phage particles and incubated at 4° C. for 3 hours. The wells were then washed six times with TBS/0.5% TWEEN® followed by addition of 40 μL of 1:5000 dilution of anti-M13 antibody (Pharmacia, Uppsala, Sweden) and incubated at room temperature for 1 hour. The wells were washed, followed by the addition of 40 μL of (2,2′-Azino-bis(3-ethylbenzthiazoline)-6-sulfonic acid (ABTS) and the colorimetric reaction was monitored at 405 nm. Non-specific binding was subtracted for each reading.
(§3) Both assays were then carried out with Gβ1γ2 heterodimers containing mutations in the Gβ1 subunit.
(§4) The nine peptides were selected to represent the different consensus groups of peptides previously identified (See Scott et al. (2001) supra; Table 9) and to compare binding characteristics within and between consensus groups. […] As disclosed herein, the binding signal obtained in the ELISA assay was correlated to a loss in affinity by comparing the results to behavior of the peptide in a solution based assay. […] For the purposes of present disclosure, any substitution that decreased the binding to less than 20% of the wild-type binding was considered to be a critical binding contact for that peptide.

Gβ1γ2 Asp246Ser = biological target: T2, Gβ1γ2 Asp246Ser (Rattus norvegicus, UniProt P54311, D246S); assay: Phage ELISA, b-βγ mutant Asp246Ser; conditions: Asp246 mutant (Asp246Ser), N-Terminal Interface; mean ± SD
T2 construct: made in house; host or cells: Sf9 insect cells (baculovirus)
Text: as §1, §2, §3, §4

Gβ1γ2 Met101Ala = biological target: T3, Gβ1γ2 Met101Ala (Rattus norvegicus, UniProt P54311, M101A); assay: Phage ELISA, b-βγ mutant Met101Ala; conditions: alanine-substituted Met101, C-Terminal Interface; mean ± SD
T3 construct: made in house; host or cells: Sf9 insect cells (baculovirus)
Text: as §1, §2, §3, §4

Gβ1γ2 Asp186Ala = biological target: T4, Gβ1γ2 Asp186Ala (Rattus norvegicus, UniProt P54311, D186A); assay: Phage ELISA, b-βγ mutant Asp186Ala; conditions: alanine-substituted Asp186, N-Terminal Interface; mean ± SD
T4 construct: made in house; host or cells: Sf9 insect cells (baculovirus)
Text: as §1, §2, §3, §4

Gβ1γ2 His311Ala = biological target: T5, Gβ1γ2 His311Ala (Rattus norvegicus, UniProt P54311, H311A); assay: Phage ELISA, b-βγ mutant His311Ala; conditions: alanine-substituted His311, Indirect; mean ± SD
T5 construct: made in house; host or cells: Sf9 insect cells (baculovirus)
Text: as §1, §2, §3, §4

Gβ1γ2 Trp332Ala = biological target: T6, Gβ1γ2 Trp332Ala (Rattus norvegicus, UniProt P54311, W332A); assay: Phage ELISA, b-βγ mutant Trp332Ala; conditions: alanine-substituted Trp332, C-Terminal Interface; mean ± SD
T6 construct: made in house; host or cells: Sf9 insect cells (baculovirus)
Text: as §1, §2, §3, §4

Gβ1γ2 Leu117Ala = biological target: T7, Gβ1γ2 Leu117Ala (Rattus norvegicus, UniProt P54311, L117A); assay: Phage ELISA, b-βγ mutant Leu117Ala; conditions: alanine-substituted Leu117, C-Terminal Interface; mean ± SD
T7 construct: made in house; host or cells: Sf9 insect cells (baculovirus)
Text: as §1, §2, §3, §4

Gβ1γ2 Asn230Ala = biological target: T8, Gβ1γ2 Asn230Ala (Rattus norvegicus, UniProt P54311, N230A); assay: Phage ELISA, b-βγ mutant Asn230Ala; conditions: alanine-substituted Asn230, N-Terminal Interface; mean ± SD
T8 construct: made in house; host or cells: Sf9 insect cells (baculovirus)
Text: as §1, §2, §3, §4

Gβ1γ2 Arg314Ala = biological target: T9, Gβ1γ2 Arg314Ala (Rattus norvegicus, UniProt P54311, R314A); assay: Phage ELISA, b-βγ mutant Arg314Ala; conditions: alanine-substituted Arg314, Indirect; mean ± SD
T9 construct: made in house; host or cells: Sf9 insect cells (baculovirus)
Text: as §1, §2, §3, §4

Gβ1γ2 Lys57Ala = biological target: T10, Gβ1γ2 Lys57Ala (Rattus norvegicus, UniProt P54311, K57A); assay: Phage ELISA, b-βγ mutant Lys57Ala; conditions: alanine-substituted Lys57, C-Terminal Interface; mean ± SD
T10 construct: made in house; host or cells: Sf9 insect cells (baculovirus)
Text: as §1, §2, §3, §4

Gβ1γ2 Trp99Ala = biological target: T11, Gβ1γ2 Trp99Ala (Rattus norvegicus, UniProt P54311, W99A); assay: Phage ELISA, b-βγ mutant Trp99Ala; conditions: alanine-substituted Trp99, C-Terminal Interface; mean ± SD
T11 construct: made in house; host or cells: Sf9 insect cells (baculovirus)
Text: as §1, §2, §3, §4

Gβ1γ2 Met188Ala = biological target: T12, Gβ1γ2 Met188Ala (Rattus norvegicus, UniProt P54311, M188A); assay: Phage ELISA, b-βγ mutant Met188Ala; conditions: alanine-substituted Met188, Shared; mean ± SD
T12 construct: made in house; host or cells: Sf9 insect cells (baculovirus)
Text: as §1, §2, §3, §4

Gβ1γ2 Tyr59Ala = biological target: T13, Gβ1γ2 Tyr59Ala (Rattus norvegicus, UniProt P54311, Y59A); assay: Phage ELISA, b-βγ mutant Tyr59Ala; conditions: alanine-substituted Tyr59, C-Terminal Interface; mean ± SD
T13 construct: made in house; host or cells: Sf9 insect cells (baculovirus)
Text: as §1, with “BAP.” for “BAP. Using this approach, 1-2 mg protein of purified protein can be obtained per liter of Sf9 insect cells. As 45 ng of protein is used in the phage ELISA assay, a single purification is sufficient for 10,000 to 30,000 binding assays.”
as §2, with “Forty μL of 25 nM bGβ1γ2 in TBS/0.5% TWEEN® was added to each well and incubated at 4° C. for 1.5 hour.” left out
as §3
The nine peptides were selected to represent the different consensus groups of peptides previously identified (See Scott et al. (2001) supra; Table 9) and to compare binding characteristics within and between consensus groups. […] For the purposes of present disclosure, any substitution that decreased the binding to less than 20% of the wild-type binding was considered to be a critical binding contact for that peptide.

T12 sequence (P54311 whole entry M188A): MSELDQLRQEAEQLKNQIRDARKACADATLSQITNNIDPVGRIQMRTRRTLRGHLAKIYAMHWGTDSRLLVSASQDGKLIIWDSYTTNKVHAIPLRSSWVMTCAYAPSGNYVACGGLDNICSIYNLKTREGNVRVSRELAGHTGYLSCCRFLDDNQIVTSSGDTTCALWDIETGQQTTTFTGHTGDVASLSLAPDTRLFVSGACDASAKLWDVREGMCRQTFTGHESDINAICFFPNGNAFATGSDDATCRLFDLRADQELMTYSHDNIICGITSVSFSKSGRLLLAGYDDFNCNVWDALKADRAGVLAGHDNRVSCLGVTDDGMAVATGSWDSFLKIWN
T12 sequence (P63212 2-68 partner limits assumed): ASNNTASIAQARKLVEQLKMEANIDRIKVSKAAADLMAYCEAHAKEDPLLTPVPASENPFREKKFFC
T11 sequence (P54311 whole entry W99A): as the sequence (P54311 whole entry M188A) above, with W99A, A188M counted along it
T11 sequence (P63212 2-68 partner limits assumed): as the sequence (P63212 2-68 partner limits assumed) above
T10 sequence (P54311 whole entry K57A): as the sequence (P54311 whole entry M188A) above, with K57A, A188M counted along it
T10 sequence (P63212 2-68 partner limits assumed): as the sequence (P63212 2-68 partner limits assumed) above
T6 sequence (P54311 whole entry W332A): as the sequence (P54311 whole entry M188A) above, with A188M, W332A counted along it
T6 sequence (P63212 2-68 partner limits assumed): as the sequence (P63212 2-68 partner limits assumed) above
T9 sequence (P54311 whole entry R314A): as the sequence (P54311 whole entry M188A) above, with A188M, R314A counted along it
T9 sequence (P63212 2-68 partner limits assumed): as the sequence (P63212 2-68 partner limits assumed) above
T2 sequence (P54311 whole entry D246S): as the sequence (P54311 whole entry M188A) above, with A188M, D246S counted along it
T2 sequence (P63212 2-68 partner limits assumed): as the sequence (P63212 2-68 partner limits assumed) above
T5 sequence (P54311 whole entry H311A): as the sequence (P54311 whole entry M188A) above, with A188M, H311A counted along it
T5 sequence (P63212 2-68 partner limits assumed): as the sequence (P63212 2-68 partner limits assumed) above
T8 sequence (P54311 whole entry N230A): as the sequence (P54311 whole entry M188A) above, with A188M, N230A counted along it
T8 sequence (P63212 2-68 partner limits assumed): as the sequence (P63212 2-68 partner limits assumed) above
T1 sequence (P54311 whole entry Y145A): as the sequence (P54311 whole entry M188A) above, with Y145A, A188M counted along it
T1 sequence (P63212 2-68 partner limits assumed): as the sequence (P63212 2-68 partner limits assumed) above
T7 sequence (P54311 whole entry L117A): as the sequence (P54311 whole entry M188A) above, with L117A, A188M counted along it
T7 sequence (P63212 2-68 partner limits assumed): as the sequence (P63212 2-68 partner limits assumed) above
T4 sequence (P54311 whole entry D186A): as the sequence (P54311 whole entry M188A) above, with D186A, A188M counted along it
T4 sequence (P63212 2-68 partner limits assumed): as the sequence (P63212 2-68 partner limits assumed) above
T13 sequence (P54311 whole entry Y59A): as the sequence (P54311 whole entry M188A) above, with Y59A, A188M counted along it
T13 sequence (P63212 2-68 partner limits assumed): as the sequence (P63212 2-68 partner limits assumed) above
T3 sequence (P54311 whole entry M101A): as the sequence (P54311 whole entry M188A) above, with M101A, A188M counted along it
T3 sequence (P63212 2-68 partner limits assumed): as the sequence (P63212 2-68 partner limits assumed) above

Sequence | % of Wild-Type Signal, Tyr145 (Gβ1γ2 Tyr145Ala) [%] | % of Wild-Type Signal, Asp246 (Gβ1γ2 Asp246Ser) [%] | % of Wild-Type Signal, Met101 (Gβ1γ2 Met101Ala) [%] | % of Wild-Type Signal, Asp186 (Gβ1γ2 Asp186Ala) [%] | % of Wild-Type Signal, His311 (Gβ1γ2 His311Ala) [%] | % of Wild-Type Signal, Trp332 (Gβ1γ2 Trp332Ala) [%] | % of Wild-Type Signal, Leu117 (Gβ1γ2 Leu117Ala) [%] | % of Wild-Type Signal, Asn230 (Gβ1γ2 Asn230Ala) [%] | % of Wild-Type Signal, Arg314 (Gβ1γ2 Arg314Ala) [%] | % of Wild-Type Signal, Lys57 (Gβ1γ2 Lys57Ala) [%] | % of Wild-Type Signal, Trp99 (Gβ1γ2 Trp99Ala) [%] | % of Wild-Type Signal, Met188 (Gβ1γ2 Met188Ala) [%] | % of Wild-Type Signal, Tyr59 (Gβ1γ2 Tyr59Ala) [%]
SCEKRYGIEFCT [C4] | 4.4 ± 3.8 | 35.8 ± 7.4 | 61.2 ± 30.9 | 51.3 ± 15.0 | 36.5 ± 8.3 | 1.7 ± 3.0 | 18.4 ± 7.1 | 11.5 ± 6.0 | 1.4 ± 1.0 | −0.2 ± 1.9 | 67.0 ± 15.2 | 127.5 ± 22.4 | 7.6 ± 9.6
SCEKRLGVRSCT [C5] | 16.7 ± 4.8 | 56.3 ± 4.1 | 47.8 ± 18.9 | 45.7 ± 5.2 | 58.7 ± 14.4 | 3.2 ± 3.7 | 28.5 ± 5.2 | 33.5 ± 7.2 | 76.5 ± 6.7 | 5.6 ± 5.3 | 39.0 ± 3.8 | 97.2 ± 14.2 | 73.8 ± 16.6
SCKRTKAQILLAPCT [C1] | 88.0 ± 29.9 | 2.3 ± 3.0 | 70.5 ± 35.3 | 1.4 ± 1.7 | 3.0 ± 4.0 | −0.3 ± 2.5 | 5.2 ± 3.1 | 19.8 ± 12.3 | 2.8 ± 1.6 | 0.1 ± 1.6 | 1.2 ± 2.7 | 4.0 ± 3.4 | 0.3 ± 0.7
WCPPKAMTQLGIKAC [C14] | 1.9 ± 5.9 | 6.3 ± 13.9 | 1.1 ± 4.9 | 3.6 ± 1.9 | 6.1 ± 3.4 | 1.6 ± 2.4 | 3.8 ± 9.2 | 60.0 ± 26.5 | 3.9 ± 7.9 | 3.0 ± 5.0 | 10.1 ± 3.3 | 9.9 ± 3.8 | 3.6 ± 2.0
LCSKAYLLLGQTC [2F] | 0.1 ± 6.5 | 0.6 ± 2.5 | 6.0 ± 5.1 | 2.4 ± 3.5 | 23.6 ± 46.0 | −1.5 ± 3.6 | 2.1 ± 5.5 | 27.6 ± 19.1 | 2.4 ± 3.9 | −4.5 ± 6.2 | 32.6 ± 26.3 | 8.5 ± 5.2 | −2.0 ± 9.5
WCPPKLEQWYDGCA [C2] | 4.5 ± 8.1 | 5.9 ± 5.7 | 157.1 ± 51.5 | 267.2 ± 40.6 | 11.7 ± 8.0 | 4.7 ± 6.2 | 1.5 ± 5.5 | 0.0 ± 3.3 | 1.3 ± 3.1 | −1.2 ± 4.5 | −1.0 ± 5.1 | −0.7 ± 2.5 | −1.7 ± 4.8
SCGHGLKVQSTIGACA [3C] | 2.7 ± 10.5 | 2.0 ± 2.7 | −4.2 ± 5.5 | 35.0 ± 17.2 | 30.5 ± 18.9 | −0.3 ± 1.7 | 10 ± 13.3 | 4.1 ± 4.4 | 8.3 ± 3.6 | 3.6 ± 7.5 | −0.5 ± 5.9 | −5.7 ± 5.6 | 8.5 ± 6.4
SIGKALFILGYPDYD [3.14] | 0.8 ± 0.9 | 66.5 ± 7.5 | 26.8 ± 12.5 | 14.4 ± 13.4 | 93.4 ± 21.5 | 7.1 ± 3.7 | 2.1 ± 2.4 | 22.4 ± 4.2 | 50.2 ± 5.0 | 18.6 ± 4.6 | 66.0 ± 7.7 | 2.5 ± 3.7 | 24.7 ± 15.2
